We go through seven molecules from patent US20230265212A1 (OVERA, published 2023).

Like-named read-outs stand apart in the source and are kept apart here. Bounds are passed on as bounds.

For experiment [1], the target named is T1, BSA conjugated to SAS1B peptide A (CGGLEETPESSFLIEGDIIRPSPFRL) (conjugated to BSA).
T1 peptide: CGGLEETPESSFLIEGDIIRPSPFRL
Nature of the experiment: BLI (Octet).

Experiment [2] concerns the target T1, BSA conjugated to SAS1B peptide A …. Briefly: BLI (Octet).
The target of experiment [3] is peptide-BSA conjugate (respective antigens of the antibodies). Briefly: biolayer interferometry (Octet), peptide-BSA conjugate.
The target of experiment [4] is T2, BSA conjugated to SAS1B peptide A (CGGLEETPESSFLIEGDIIRPSPFRL) (human, conjugated to BSA).
T2 construct: also called peptide-BSA conjugate
T2 peptide: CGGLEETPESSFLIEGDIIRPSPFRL
The experiment is described as above. As to the method: Protein A-Purified antibodies were subjected to binding kinetic analysis via biolayer interferometry (Fortebio's Octet instrument) and the parameters of binding to peptide-BSA conjugate were determined (FIGS. 8 and 9). […] The dissociation constants (Kdis) from these three clones were too slow to be accurately fit (<1×10⁻⁶ sec⁻¹). With the caveat that Kdis were inaccurate due to these long residency times, KDs were calculated (FIGS. 8 and 9).

Experiment [5] concerns the target T2, BSA conjugated to SAS1B peptide A …. Nature of the experiment: colorimetric ELISA, BSA-peptide A coated, anti-mouse IgG-HRP. The text has this: Colorimetric ELISA data comparing binding of naked OV119 to OV119 conjugated using stochastic chemistry (OV119-WT-OM) and AJICAP site-specific conjugation (OV119-CAP-DM1). The solid phase was coated with BSA conjugated to SAS1B peptide A ([…]). Normalized concentrations of the three antibody moieties were titrated by serial 5-fold dilution. A secondary antibody specific for mouse IgG and conjugated to horse radish peroxidase was then applied. After development using TMB substrate and reaction stopping with H₂SO₄, absorbance of light at 450 nm was measured and plotted against antibody concentration (FIG. 14).

B1: monoclonal antibody OV115 (antibody, V domains shown)
VH: DVQLQESGPGLVKPSQSLSLTCTVTGYSLTSDYAWNWIRQFPGKKVEWMGYLSYSGRTSYNPSLKSRISITRDTSRNQFFLQLNSVTTEDTATYYCARMGGNFGFDYWGQGTTLTVST
VL: GIVMTQAPLSLPVSLGDQASISCRSSQSLVHINGSTYLHWYLQKPGQSPNLLIYKVSYRFSGVPDRFSGSGSGTDFTLKITRVEAEDLGVYFCSQSTHVPLTFGSGTKLEIK
Consider B1, for which the dissociation constant Kd in experiment [1] was less than 0.001 nM.

B2: monoclonal antibody OV123 (antibody, V domains shown)
VH: EVQLQESGPGLVKPSQSLSLTCTVTGYSITSDNAWNWIRQFPGNKLEWMGYISYSGRTSYNPSLKSRISVTRDTSKNRFFLQLNSVTTEDTATYYCARIGSYFTMDYWGQGTSVTVSS
VL: DVVMTQTPLSLSVGLGDQASISCRSSQSLVHINGSTYLHWYLQKPGQSPKLLIYKIANRFSGVPDRFSGSGSGTDFTLKISRVEAEDLGAYFCSQSTHVPLTFGAGTKLEIK
As to B2, in experiment [2], the Kd came out at 0.284 nM. The koff in experiment [3] was less than 1e-06 s⁻¹.

B3: monoclonal antibody OV124 (antibody, V domains shown)
VH: EVQLQESGAELMKPGASVKLSCKATGSIFNKYWIDWVRQRPGHGLEWIGEILPGSGSTIYSEKFKGKATITADTSSNTAYMQLSSLTSEDSAVYYCASRALDYWGQGTTLTVSS
VL: DVVMTQTPLSLPVSLGDQASISCRSSQSLIHSNGNTYLHWYLQKPGQSPKLLIYQVSNRFSGVPDRFSGSGSGTDFTLKISRVEAEDLGVYFCSQSTHVPYTFGGGTKLEIK
Molecule B3 showed a Kd in experiment [2] of 0.115 nM. The molecule also came in with a dissociation rate constant (koff) in experiment [3] of less than 1e-06 s⁻¹.

B4: monoclonal antibody OV119 (antibody, V domains shown)
VH: EVQLQESGPELVKPGASVKISCKTSGYTFTEYPMHWVKQSHGKSLEWIGGINPNNGDTTYNQRFKGKATLTVDKSSGTAYMELRSLTSEDSAVYYCVPNFDWFAYWGQGTLVTVSP
VL: DVLMTQSPLSLPVSLGDQASISCRSSQSIVHSYGNTYLEWYLQKPGQSPKLLIYKVSNRFSGVPDRFSGSGSGTDFTLRISRVEAEDLGIYYCFQGSHLPFTFGGGTKLEIK
notes: Mouse hybridoma monoclonal IgG; also called naked OV119 (unconjugated)
For B4, the Kd in experiment [2] amounted to 0.0343 nM. The koff in experiment [4] was less than 1e-06 s⁻¹.

B5: OV119 conjugated to DM1 using AJICAP site-specific conjugation (antibody, V domains shown)
VH: B4 VH
VL: B4 VL
modifications: DM1 on the heavy chain by AJICAP site-specific conjugation via azide intermediates, 1 or 2 DM1 molecules per heavy chain (DAR 2, 3 and 4); residue not stated
notes: Antibody-drug conjugate of mouse IgG OV119; also called OV119-DM1; OV119-CAP-DM1
For the molecule B5, in experiment [5], the binding result is given as “binds”.

B6: OV119 conjugated using stochastic chemistry (OV119-WT-OM) (antibody, V domains shown)
VH: B4 VH
VL: B4 VL
modifications: drug conjugated by stochastic chemistry; sites and drug load not stated
notes: Stochastic conjugate of OV119
Consider B6, for which the binding result in experiment [5] is reported as “binds”.

B7: monoclonal antibody OV121 (antibody, V domains shown)
VH: EVQLQESGPGLVKPSQSLSLTCTVTGYSVTSDSAWNWIRQFPGNKLEWMGYISYSGSTTYNPSLKSRISITRDTSENQFFLQLRSVTTEDTATYYCARLGNLFTMDYWGQGTSVTVSA
VL: EILLTQSPVILAASPGEKVTITCSASSSLNYMNWYQQRPGSSPKIWIYGISNLASGVPARFSGSGSGTSFSFTINSMEAEDVATYYCQQRSSFPFTFGSGTKLEIK
As to B7, the Kd in experiment [1] turned out to be 0.532 nM.
